In PMC4882459:

Columns and labels:
[1] = target: ES-62 (Acanthocheilonema viteae); experiment: SEC; HPLC on a G4000SW column in HBSC buffer (1 mM CaCl2); ES-62 injected, with or without CRP at 20 ug/ml in the column buffer, or with EDTA
[2] = target: Biotinylated C-reactive protein (human) (UniProt P02741); experiment: SPR; Biacore 3000; biotinylated CRP or SAP captured to 200 RU on streptavidin on a CM5 chip; ES-62 flowed at 30 ul/min in HBS pH 7.4 with 1 mM CaCl2 and 0.005% P20; regeneration with 3 mM EDTA; ka and kd calculated separately
Biotinylated C-reactive protein (human), sequence (P02741 19-224): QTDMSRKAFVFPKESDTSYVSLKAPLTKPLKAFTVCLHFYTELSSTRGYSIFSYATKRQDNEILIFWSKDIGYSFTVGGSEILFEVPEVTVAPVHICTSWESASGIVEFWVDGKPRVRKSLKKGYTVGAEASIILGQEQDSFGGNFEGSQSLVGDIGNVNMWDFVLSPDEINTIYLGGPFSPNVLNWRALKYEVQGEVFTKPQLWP

## ES-62 (natural protein)
[1]
  stoichiometry N: 4
[2]
  koff: 0.0013 to 0.0014 s⁻¹
  kon: 100000 to 1e+06 M⁻¹ s⁻¹
